The values below are quoted from earlier work in paper PMC12224906.

The data set concerns the target eIF5B CTD (Homo sapiens) (UniProt O60841).
Sequence of UniProt O60841 (O60841 1076-1220): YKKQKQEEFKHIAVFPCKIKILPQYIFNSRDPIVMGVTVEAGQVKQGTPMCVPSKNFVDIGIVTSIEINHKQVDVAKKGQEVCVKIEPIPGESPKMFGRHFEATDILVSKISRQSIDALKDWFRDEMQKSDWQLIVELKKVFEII

As for eIF5 CTT (from UniProt P55010), the Kd (in general, the free concentration of one partner at which half of the binding sites on the other are occupied at equilibrium, for simple one-to-one binding) is 500 nM.
